Laboratory results published in patent US20150344570A1 (published 2015).

B1: GpH7-A5/GpH7-B3 variant E269_04F/GpL16-k0 (antibody, human IgG1, kappa)
heavy 1: not shown
heavy 2: not shown
light: DIVMTQSPLSLPVTPGEPASISCQASESLVHSNRNTYLHWYLQKPGQSPQLLIYKVSNRFSGVPDRFSGSGSGTDFTLKISRVEAEDVGVYYCSQNTHVPPTFGQGTKVEIERTVAAPSVFIFPPSDEQLKSGTASVVCLLNNFYPREAKVQWKVDNALQSGNSQESVTEQDSKDSTYSLSSTLTLSKADYEKHKVYACEVTHQGLSSPVTKSFNRGEC
notes: also called He Ab E269_04F
B2: GpH7-A5/GpH7-B3 variant E269_05P/GpL16-k0 (antibody, human IgG1, kappa)
heavy 1: not shown
heavy 2: not shown
light: DIVMTQSPLSLPVTPGEPASISCQASESLVHSNRNTYLHWYLQKPGQSPQLLIYKVSNRFSGVPDRFSGSGSGTDFTLKISRVEAEDVGVYYCSQNTHVPPTFGQGTKVEIERTVAAPSVFIFPPSDEQLKSGTASVVCLLNNFYPREAKVQWKVDNALQSGNSQESVTEQDSKDSTYSLSSTLTLSKADYEKHKVYACEVTHQGLSSPVTKSFNRGEC
notes: also called He Ab E269_05P
B3: GpH7-A5/GpH7-B3 variant E269_06M/GpL16-k0 (antibody, human IgG1, kappa)
heavy 1: not shown
heavy 2: not shown
light: DIVMTQSPLSLPVTPGEPASISCQASESLVHSNRNTYLHWYLQKPGQSPQLLIYKVSNRFSGVPDRFSGSGSGTDFTLKISRVEAEDVGVYYCSQNTHVPPTFGQGTKVEIERTVAAPSVFIFPPSDEQLKSGTASVVCLLNNFYPREAKVQWKVDNALQSGNSQESVTEQDSKDSTYSLSSTLTLSKADYEKHKVYACEVTHQGLSSPVTKSFNRGEC
notes: also called He Ab E269_06M
B4: GpH7-A5/GpH7-B3 variant E269_07I/GpL16-k0 (antibody, human IgG1, kappa)
heavy 1: not shown
heavy 2: not shown
light: DIVMTQSPLSLPVTPGEPASISCQASESLVHSNRNTYLHWYLQKPGQSPQLLIYKVSNRFSGVPDRFSGSGSGTDFTLKISRVEAEDVGVYYCSQNTHVPPTFGQGTKVEIERTVAAPSVFIFPPSDEQLKSGTASVVCLLNNFYPREAKVQWKVDNALQSGNSQESVTEQDSKDSTYSLSSTLTLSKADYEKHKVYACEVTHQGLSSPVTKSFNRGEC
notes: also called He Ab E269_07I
B5: GpH7-A5/GpH7-B3 variant E269_08L/GpL16-k0 (antibody, human IgG1, kappa)
heavy 1: not shown
heavy 2: not shown
light: DIVMTQSPLSLPVTPGEPASISCQASESLVHSNRNTYLHWYLQKPGQSPQLLIYKVSNRFSGVPDRFSGSGSGTDFTLKISRVEAEDVGVYYCSQNTHVPPTFGQGTKVEIERTVAAPSVFIFPPSDEQLKSGTASVVCLLNNFYPREAKVQWKVDNALQSGNSQESVTEQDSKDSTYSLSSTLTLSKADYEKHKVYACEVTHQGLSSPVTKSFNRGEC
notes: also called He Ab E269_08L
B6: GpH7-A5/GpH7-B3 variant E269_09D/GpL16-k0 (antibody, human IgG1, kappa)
heavy 1: not shown
heavy 2: not shown
light: DIVMTQSPLSLPVTPGEPASISCQASESLVHSNRNTYLHWYLQKPGQSPQLLIYKVSNRFSGVPDRFSGSGSGTDFTLKISRVEAEDVGVYYCSQNTHVPPTFGQGTKVEIERTVAAPSVFIFPPSDEQLKSGTASVVCLLNNFYPREAKVQWKVDNALQSGNSQESVTEQDSKDSTYSLSSTLTLSKADYEKHKVYACEVTHQGLSSPVTKSFNRGEC
notes: also called He Ab E269_09D
B7: GpH7-A5/GpH7-B3 variant E269_13S/GpL16-k0 (antibody, human IgG1, kappa)
heavy 1: not shown
heavy 2: not shown
light: DIVMTQSPLSLPVTPGEPASISCQASESLVHSNRNTYLHWYLQKPGQSPQLLIYKVSNRFSGVPDRFSGSGSGTDFTLKISRVEAEDVGVYYCSQNTHVPPTFGQGTKVEIERTVAAPSVFIFPPSDEQLKSGTASVVCLLNNFYPREAKVQWKVDNALQSGNSQESVTEQDSKDSTYSLSSTLTLSKADYEKHKVYACEVTHQGLSSPVTKSFNRGEC
notes: also called He Ab E269_13S
B8: GpH7-A5/GpH7-B3 variant E269_14T/GpL16-k0 (antibody, human IgG1, kappa)
heavy 1: not shown
heavy 2: not shown
light: DIVMTQSPLSLPVTPGEPASISCQASESLVHSNRNTYLHWYLQKPGQSPQLLIYKVSNRFSGVPDRFSGSGSGTDFTLKISRVEAEDVGVYYCSQNTHVPPTFGQGTKVEIERTVAAPSVFIFPPSDEQLKSGTASVVCLLNNFYPREAKVQWKVDNALQSGNSQESVTEQDSKDSTYSLSSTLTLSKADYEKHKVYACEVTHQGLSSPVTKSFNRGEC
notes: also called He Ab E269_14T
B9: GpH7-A5/GpH7-B3 variant E269_15Y/GpL16-k0 (antibody, human IgG1, kappa)
heavy 1: not shown
heavy 2: not shown
light: DIVMTQSPLSLPVTPGEPASISCQASESLVHSNRNTYLHWYLQKPGQSPQLLIYKVSNRFSGVPDRFSGSGSGTDFTLKISRVEAEDVGVYYCSQNTHVPPTFGQGTKVEIERTVAAPSVFIFPPSDEQLKSGTASVVCLLNNFYPREAKVQWKVDNALQSGNSQESVTEQDSKDSTYSLSSTLTLSKADYEKHKVYACEVTHQGLSSPVTKSFNRGEC
notes: also called He Ab E269_15Y
B10: GpH7-A5/GpH7-B3 variant E269_16H/GpL16-k0 (antibody, human IgG1, kappa)
heavy 1: not shown
heavy 2: not shown
light: DIVMTQSPLSLPVTPGEPASISCQASESLVHSNRNTYLHWYLQKPGQSPQLLIYKVSNRFSGVPDRFSGSGSGTDFTLKISRVEAEDVGVYYCSQNTHVPPTFGQGTKVEIERTVAAPSVFIFPPSDEQLKSGTASVVCLLNNFYPREAKVQWKVDNALQSGNSQESVTEQDSKDSTYSLSSTLTLSKADYEKHKVYACEVTHQGLSSPVTKSFNRGEC
notes: also called He Ab E269_16H
B11: GpH7-A5/GpH7-B3 variant E269_18N/GpL16-k0 (antibody, human IgG1, kappa)
heavy 1: not shown
heavy 2: not shown
light: DIVMTQSPLSLPVTPGEPASISCQASESLVHSNRNTYLHWYLQKPGQSPQLLIYKVSNRFSGVPDRFSGSGSGTDFTLKISRVEAEDVGVYYCSQNTHVPPTFGQGTKVEIERTVAAPSVFIFPPSDEQLKSGTASVVCLLNNFYPREAKVQWKVDNALQSGNSQESVTEQDSKDSTYSLSSTLTLSKADYEKHKVYACEVTHQGLSSPVTKSFNRGEC
notes: also called He Ab E269_18N
B12: GpH7-A5/GpH7-B3 variant E269_19Q/GpL16-k0 (antibody, human IgG1, kappa)
heavy 1: not shown
heavy 2: not shown
light: DIVMTQSPLSLPVTPGEPASISCQASESLVHSNRNTYLHWYLQKPGQSPQLLIYKVSNRFSGVPDRFSGSGSGTDFTLKISRVEAEDVGVYYCSQNTHVPPTFGQGTKVEIERTVAAPSVFIFPPSDEQLKSGTASVVCLLNNFYPREAKVQWKVDNALQSGNSQESVTEQDSKDSTYSLSSTLTLSKADYEKHKVYACEVTHQGLSSPVTKSFNRGEC
notes: also called He Ab E269_19Q
B13: GpH7-A5/GpH7-B3 variant E269_20W/GpL16-k0 (antibody, human IgG1, kappa)
heavy 1: not shown
heavy 2: not shown
light: DIVMTQSPLSLPVTPGEPASISCQASESLVHSNRNTYLHWYLQKPGQSPQLLIYKVSNRFSGVPDRFSGSGSGTDFTLKISRVEAEDVGVYYCSQNTHVPPTFGQGTKVEIERTVAAPSVFIFPPSDEQLKSGTASVVCLLNNFYPREAKVQWKVDNALQSGNSQESVTEQDSKDSTYSLSSTLTLSKADYEKHKVYACEVTHQGLSSPVTKSFNRGEC
notes: also called He Ab E269_20W
B14: GpH7-A5/GpH7-B3 variant E333_01G/GpL16-k0 (antibody, human IgG1, kappa)
heavy 1: not shown
heavy 2: not shown
light: DIVMTQSPLSLPVTPGEPASISCQASESLVHSNRNTYLHWYLQKPGQSPQLLIYKVSNRFSGVPDRFSGSGSGTDFTLKISRVEAEDVGVYYCSQNTHVPPTFGQGTKVEIERTVAAPSVFIFPPSDEQLKSGTASVVCLLNNFYPREAKVQWKVDNALQSGNSQESVTEQDSKDSTYSLSSTLTLSKADYEKHKVYACEVTHQGLSSPVTKSFNRGEC
notes: also called He Ab E333_01G
B15: GpH7-A5/GpH7-B3 variant E333_02A/GpL16-k0 (antibody, human IgG1, kappa)
heavy 1: not shown
heavy 2: not shown
light: DIVMTQSPLSLPVTPGEPASISCQASESLVHSNRNTYLHWYLQKPGQSPQLLIYKVSNRFSGVPDRFSGSGSGTDFTLKISRVEAEDVGVYYCSQNTHVPPTFGQGTKVEIERTVAAPSVFIFPPSDEQLKSGTASVVCLLNNFYPREAKVQWKVDNALQSGNSQESVTEQDSKDSTYSLSSTLTLSKADYEKHKVYACEVTHQGLSSPVTKSFNRGEC
notes: also called He Ab E333_02A
B16: GpH7-A5/GpH7-B3 variant E333_03V/GpL16-k0 (antibody, human IgG1, kappa)
heavy 1: not shown
heavy 2: not shown
light: DIVMTQSPLSLPVTPGEPASISCQASESLVHSNRNTYLHWYLQKPGQSPQLLIYKVSNRFSGVPDRFSGSGSGTDFTLKISRVEAEDVGVYYCSQNTHVPPTFGQGTKVEIERTVAAPSVFIFPPSDEQLKSGTASVVCLLNNFYPREAKVQWKVDNALQSGNSQESVTEQDSKDSTYSLSSTLTLSKADYEKHKVYACEVTHQGLSSPVTKSFNRGEC
notes: also called He Ab E333_03V
B17: GpH7-A5/GpH7-B3 variant E333_04F/GpL16-k0 (antibody, human IgG1, kappa)
heavy 1: not shown
heavy 2: not shown
light: DIVMTQSPLSLPVTPGEPASISCQASESLVHSNRNTYLHWYLQKPGQSPQLLIYKVSNRFSGVPDRFSGSGSGTDFTLKISRVEAEDVGVYYCSQNTHVPPTFGQGTKVEIERTVAAPSVFIFPPSDEQLKSGTASVVCLLNNFYPREAKVQWKVDNALQSGNSQESVTEQDSKDSTYSLSSTLTLSKADYEKHKVYACEVTHQGLSSPVTKSFNRGEC
notes: also called He Ab E333_04F
B18: GpH7-A5/GpH7-B3 variant E333_05P/GpL16-k0 (antibody, human IgG1, kappa)
heavy 1: not shown
heavy 2: not shown
light: DIVMTQSPLSLPVTPGEPASISCQASESLVHSNRNTYLHWYLQKPGQSPQLLIYKVSNRFSGVPDRFSGSGSGTDFTLKISRVEAEDVGVYYCSQNTHVPPTFGQGTKVEIERTVAAPSVFIFPPSDEQLKSGTASVVCLLNNFYPREAKVQWKVDNALQSGNSQESVTEQDSKDSTYSLSSTLTLSKADYEKHKVYACEVTHQGLSSPVTKSFNRGEC
notes: also called He Ab E333_05P
B19: GpH7-A5/GpH7-B3 variant E333_06M/GpL16-k0 (antibody, human IgG1, kappa)
heavy 1: not shown
heavy 2: not shown
light: DIVMTQSPLSLPVTPGEPASISCQASESLVHSNRNTYLHWYLQKPGQSPQLLIYKVSNRFSGVPDRFSGSGSGTDFTLKISRVEAEDVGVYYCSQNTHVPPTFGQGTKVEIERTVAAPSVFIFPPSDEQLKSGTASVVCLLNNFYPREAKVQWKVDNALQSGNSQESVTEQDSKDSTYSLSSTLTLSKADYEKHKVYACEVTHQGLSSPVTKSFNRGEC
notes: also called He Ab E333_06M
B20: GpH7-A5/GpH7-B3 variant E333_07I/GpL16-k0 (antibody, human IgG1, kappa)
heavy 1: not shown
heavy 2: not shown
light: DIVMTQSPLSLPVTPGEPASISCQASESLVHSNRNTYLHWYLQKPGQSPQLLIYKVSNRFSGVPDRFSGSGSGTDFTLKISRVEAEDVGVYYCSQNTHVPPTFGQGTKVEIERTVAAPSVFIFPPSDEQLKSGTASVVCLLNNFYPREAKVQWKVDNALQSGNSQESVTEQDSKDSTYSLSSTLTLSKADYEKHKVYACEVTHQGLSSPVTKSFNRGEC
notes: also called He Ab E333_07I
B21: GpH7-A5/GpH7-B3 variant E333_08L/GpL16-k0 (antibody, human IgG1, kappa)
heavy 1: not shown
heavy 2: not shown
light: DIVMTQSPLSLPVTPGEPASISCQASESLVHSNRNTYLHWYLQKPGQSPQLLIYKVSNRFSGVPDRFSGSGSGTDFTLKISRVEAEDVGVYYCSQNTHVPPTFGQGTKVEIERTVAAPSVFIFPPSDEQLKSGTASVVCLLNNFYPREAKVQWKVDNALQSGNSQESVTEQDSKDSTYSLSSTLTLSKADYEKHKVYACEVTHQGLSSPVTKSFNRGEC
notes: also called He Ab E333_08L

molecular target: T1, FcγRIa (human, UniProt P12314 16-292); assay: SPR (Biacore); He Ab relative to HeCon Ab = 100
T1 construct: extracellular domain; also called FcgRI; 1a
T1 sequence (P12314 16-292): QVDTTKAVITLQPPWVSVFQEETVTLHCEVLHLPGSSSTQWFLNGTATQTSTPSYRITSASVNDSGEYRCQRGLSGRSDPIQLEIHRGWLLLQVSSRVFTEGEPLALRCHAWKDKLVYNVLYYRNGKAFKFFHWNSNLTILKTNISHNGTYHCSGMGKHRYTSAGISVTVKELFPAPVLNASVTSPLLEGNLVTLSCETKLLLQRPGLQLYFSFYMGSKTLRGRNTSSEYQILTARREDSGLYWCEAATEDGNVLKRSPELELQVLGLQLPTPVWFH
Method: Analysis of interaction between objective antibody and the FcγR was carried out using Biacore T100 (GE Healthcare). HBS-EP+ (GE Healthcare) was used as the running buffer, and the measurement temperature was set to 25° C. Chips produced by immobilizing the antigen peptide by the amine coupling method to a Series S Sencor Chip CM5 (GE Healthcare), or alternatively, chips produced by allowing preliminarily biotinylated antigen peptides to interact with and immobilize onto a Series S Sensor Chip SA (certified) (GE Healthcare) were used. Antibodies of interest were captured onto an antigen peptide-immobilized chip, and allowed to interact to each FcγR diluted with running buffer. To regenerate and repeatedly use the chip, the antibodies captured on the chip were washed off by reacting 10 mM glycine-HCl, pH 1.5.

He/Con_1a, 106 % of control:
B8, B9, B10

He/Con_1a, 102 % of control:
B2, B11, B17, B18, B19, B20, B21

He/Con_1a, 107 % of control:
B6

He/Con_1a, 104 % of control:
B3, B5

He/Con_1a, 103 % of control:
B1, B4, B7, B14, B15

He/Con_1a, 105 % of control:
B12, B13, B16
